Test results as given in patent publication US20130231465A1 (HEMHOLTZ ZENTRUM MUNCHEN DEUTCHES FORSCHUNGSZENTRUM FUR …, published 2013).

Target: CA-XII as used in the enzyme inhibition assay (Homo sapiens (Human), UniProt O43570 25-301, limits assumed)
Test: cell-based or functional assay

CA-XII as used in the enzyme inhibition assay, sequence (O43570 25-301 limits assumed): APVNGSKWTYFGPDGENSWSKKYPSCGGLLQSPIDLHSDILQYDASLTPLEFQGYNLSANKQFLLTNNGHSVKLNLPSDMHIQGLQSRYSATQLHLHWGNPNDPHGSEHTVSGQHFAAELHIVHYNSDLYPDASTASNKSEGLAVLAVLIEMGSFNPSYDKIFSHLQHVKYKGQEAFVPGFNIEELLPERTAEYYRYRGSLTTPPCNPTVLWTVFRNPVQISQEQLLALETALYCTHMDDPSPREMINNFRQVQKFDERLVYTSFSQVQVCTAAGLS

inhibition of CA-XII (enzyme activity), IC50: 6.14 nM
B1: EXO 6A10 (antibody, V domains shown)
VH: EVKLEESGPGLVQPSETLSLTCTVSGFSLTTYSVSWVRQPSGKGPEWMGRMWYDGDTVYNSALKSRLSISRDTSKNQVFLKMNSLETDETGTYYCTRDFGYFDGSSPFDYWGQGVMVTVSS
VL: DIVMTQTPATLSVTPGESVSLSCRASQGISTSIHWYQQKSNESPRLLIKFASQSISGIPSRFSGSGSGTDFTLSINRVESEDFSVYFCQQTYSLPYTFGAGTKLELK
